Laboratory results reported in paper PMC11985770, “The SlERF4-9-SlCDF1/3-SlAEC2/SlPIN5 module regulates tomato root morphogenesis”.

B1: proCDF1 probe (P1 site) (dsDNA)
DNA 1: ACGACGTTGGCCGGCGGCGGCGAATTCACGGCGGCTAAACGAGTTTT
DNA 2: AAAACTCGTTTAGCCGCCGTGAATTCGCCGCCGCCGGCCAACGTCGT
B2: proCDF3 probe (P2 site) (dsDNA)
DNA 1: CGTCAACTCGCCGGCGGCGACTTCGTCGGA
DNA 2: TCCGACGAAGTCGCCGCCGGCGAGTTGACG

Biological target: SlERF4-9-GST (Solanum lycopersicum (tomato), UniProt A0A3Q7G811 1-264)
Assay: EMSA; Beyotime Chemiluminescent EMSA Kit; 100x cold probe as competitor; buffer, salt, pH and temperature not stated
Settings: protein: recombinant; tags: GST (pGEX6P-1); label: biotin on both strands (3' end); blunt

Chain of SlERF4-9-GST (A0A3Q7G811 entry or part of it): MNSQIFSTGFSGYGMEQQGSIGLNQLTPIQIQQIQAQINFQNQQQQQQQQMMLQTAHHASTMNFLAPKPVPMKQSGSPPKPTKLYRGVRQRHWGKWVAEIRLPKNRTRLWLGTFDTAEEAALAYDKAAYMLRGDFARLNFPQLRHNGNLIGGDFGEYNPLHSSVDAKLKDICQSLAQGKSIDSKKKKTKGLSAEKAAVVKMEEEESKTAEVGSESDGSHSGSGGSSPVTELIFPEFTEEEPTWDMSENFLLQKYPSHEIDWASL

Binder	binding result
B1	binds
B2	binds
